{"source": "paper PMC3093752", "binders": {"B1": {"name": "13-nt/18-nt primer/template with cis-syn T-T dimer (dsDNA)", "DNA 1": "TTCCTTGGTCCTTCCCCC", "DNA 2": "GGGGGAAGGACCA", "modifications": "cis-syn cyclobutane thymine dimer in template (T5-T6, position from pairing with primer); 3'-terminal dideoxyadenosine on primer"}}, "biological_target": "T1, DNA polymerase kappa catalytic core (Polκ19-526) (human, UniProt Q9UBT6 19-526)", "T1 sequence": "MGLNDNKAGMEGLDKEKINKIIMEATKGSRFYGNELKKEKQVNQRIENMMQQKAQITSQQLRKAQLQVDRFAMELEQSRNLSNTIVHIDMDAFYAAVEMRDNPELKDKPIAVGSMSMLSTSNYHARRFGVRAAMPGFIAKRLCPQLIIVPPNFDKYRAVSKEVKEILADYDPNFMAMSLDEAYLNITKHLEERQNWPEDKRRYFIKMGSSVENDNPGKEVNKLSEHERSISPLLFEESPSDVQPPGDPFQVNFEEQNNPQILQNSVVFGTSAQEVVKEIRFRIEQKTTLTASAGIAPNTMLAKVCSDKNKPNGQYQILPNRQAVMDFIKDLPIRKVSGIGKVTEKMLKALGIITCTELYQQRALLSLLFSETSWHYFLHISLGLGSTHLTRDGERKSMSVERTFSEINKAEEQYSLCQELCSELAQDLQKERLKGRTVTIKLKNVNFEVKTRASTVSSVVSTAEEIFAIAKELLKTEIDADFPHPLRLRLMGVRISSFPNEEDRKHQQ", "assay": "X-ray crystallography", "data": [{"binder": "B1", "values": [{"measurement": "binding result", "result": "binds"}]}]}
